These results are taken from patent publication US20230357364A1 (INTERNATIONAL AIDS VACCINE INITIATIVE, published 2023).

Read-outs that look alike come from different tables or passages of the source.

Experiment [1] concerns the target T1, SARS-CoV-2 spike on pseudovirus or live virus (USA-WA1/2020, WT) (SARS-CoV-2, UniProt P0DTC2 14-1273). In words: cell-based or functional assay.
Experiment [2] has as its target T2, SARS-CoV-1 spike on pseudovirus (SARS-CoV-1, UniProt P59594 14-1255). Put plainly: cell-based or functional assay.
The target in experiment [3] is T1, SARS-CoV-2 spike on pseudovirus or live …. Put plainly: cell-based or functional assay. This is another data set of the same source.
Experiment [4] addresses SARS-CoV-1 RBD (RBD-1) (SARS-CoV-1). In words: ELISA. On the technique in general: ELISA stands for enzyme-linked immunosorbent assay.
The target of experiment [5] is SARS-CoV-2 RBD (RBD-2) (SARS-CoV-2). In words: ELISA.
Experiment [6] addresses T1, SARS-CoV-2 spike on pseudovirus or live …. In words: cell-based or functional assay. This is another data set of the same source.
Experiment [7] addresses T2, SARS-CoV-1 spike on pseudovirus. In words: cell-based or functional assay. This is another data set of the same source.
Experiment [8] has as its target T1, SARS-CoV-2 spike on pseudovirus or live …. In words: cell-based or functional assay. This is another data set of the same source.
The target of experiment [9] is SARS-CoV-2 RBD (RBD-2) (SARS-CoV-2). In words: flow, HeLa-ACE2, mAb:RBD=2:1.
Experiment [10] shares this target. In words: flow, HeLa-ACE2, mAb:RBD=4:1.
For experiment [11], the target named is T2, SARS-CoV-1 spike on pseudovirus. Put plainly: cell-based or functional assay. This is another data set of the same source.
The target of experiment [12] is T1, SARS-CoV-2 spike on pseudovirus or live …. Put plainly: cell-based or functional assay. This is another data set of the same source.
Experiment [13] deals with T3, SARS-CoV-2 RBD (residue 332-527) (SARS-CoV-2, UniProt P0DTC2 332-527).
T3 construct: range 332-527
Put plainly: ELISA on truncated S constructs.

The target of experiment [14] is SARS-CoV-2 RBD (RBD-2) (SARS-CoV-2). Put plainly: SPR, Fc-captured IgG. For orientation: SPR reads the build-up and loss of mass on a sensor chip optically.
Experiment [15] shares this target. In words: SPR.
The target in experiment [16] is human insulin (human, UniProt P01308 25-54; P01308 90-110). Put plainly: polyreactivity ELISA.
human insulin, sequence (P01308 25-54 limits assumed, chain 1 of 2): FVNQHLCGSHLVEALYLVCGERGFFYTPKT
human insulin, sequence (P01308 90-110 limits assumed, chain 2 of 2): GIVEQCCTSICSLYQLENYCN

B1: L6.dP04E05 (antibody, V domains shown)
VH: EVQLVESGGGLVQPGRSLRLSCAASGFTFDDYAMHWVRQAPGKGLEWVSGISWNSDNIGYADSVKGRFTVSRDNAKNSLYLQMNSLRAEDTALYYCTKDIHRKNDYYDILTGYYRVRYYYYAMDVWGQGTTVTVSS
VL: QSVLTQPPSASGSPGQSVTISCTGTSSDAGGYNYVSWYQQHPGKAPKLMIYEVIKRPSGVPDRFSGSKSGNTASLTVSGLQAEDEADYYCSSFAGTSVVFGGGTKLTVL
notes: human IgG1
Take B1: the “neutralization IC50” value in experiment [1] was found to be 0.36 ng/mL. Besides, in experiment [2], the “PSV in HeLa-ACE2 cells IC50” value is greater than 25 µg/mL. In experiment [3], the “PSV in HeLa-ACE2 cells IC50” value was 6 ng/mL, the “live virus IC50 (HeLa-ACE2)” value amounted to 3 ng/mL and the “live virus IC50 (Vero)” value stood at 6 ng/mL. In [4], the EC50 (in general, the concentration giving half of the maximal effect) was greater than 10 µg/mL. This molecule also yielded an EC50 in experiment [5] of 0.018 µg/mL. Moreover, in experiment [6], the “fold more potent than L12.bP11A6” value was roughly 50 fold.

B2: L12.cP08D07 (antibody, V domains shown)
VH: QVQLQESGPGLVKPSETLSLTCTVSGGSISSSSYYWGWIRQPPGKGLEWIGSIYYSGSTYYNPSLKSRVTISVDTSKNQFSLKLSSVTAADTAVYYCARQGDCSTTSCAYDYWGQGTLVTVSS
VL: SYELTQPPSVSVSPGQTARITCSGDALPKQYAYWYQQKPGQAPVLVIYKDSERPSGIPERFSGSSSGTTATLTISGVQAEDEADYYCQSADSSGTYLVVFGGGTKLAVL
notes: human IgG1
On to B2, for which the “PSV neutralization IC50” value in [7] is greater than 50 µg/mL; in experiment [8] it was 21.9 µg/mL; in [11] it was greater than 50 µg/mL; in experiment [12], 1.81 µg/mL. In addition, the “Maximum Plateau of Neutralization” value in [8] was 64%. The EC50 in experiment [4] and in experiment [5] was greater than 50 µg/mL throughout. Besides, the “% inhibition of RBD binding to hACE2” value is 3% in experiment [9] and -3.9% in experiment [10]. Further, the “MFI (RBD binding to cell surface)” value is 10800 in experiment [9] and 11600 in [10]. The binding result in experiment [13] is listed as “no binding”. Further, the Kd – broadly, a measure of binding affinity in units of concentration – in experiment [14] came out at 26.8 nM. In addition, in experiment [14], the koff (as a rule, a measure of how fast the partners let go of each other) was found to be 0.017 s⁻¹. Besides, the kon (as a rule, the second-order rate constant of association) in experiment [14] was found to be 636000 M⁻¹ s⁻¹.

B3: L6.dP03H10 (antibody, V domains shown)
VH: QVQLVQSGAEVKKPGSSVKVSCKASGGTFSIYAITWVRQAPGQGLEWMGGIIPIIGTANYAQKFQGRVTITADKSTSTAYMELSSLRSEDTAVYYCARDFRYCSSTRCYFWFDPWGQGTLVTVSS
VL: DIQMTQSPSSLSASVGDRVTITCRASQNISSYLNWYQQEAGKAPKLLIYAASSLQSGVPSRFSGSGSGTDFTLTISSLQPEDFATYYCQQSYSTPRTFGQGTKVDIK
As to B3, the “PSV neutralization IC50” value in [7] is greater than 50 µg/mL; in [8] it was 0.001 µg/mL. For the same molecule, in [8], the “Maximum Plateau of Neutralization” value worked out at 100%. Also, in [1], the “neutralization IC50” value came out at 1.7 ng/mL. In [15], the Kd was found to be 5.9 nM. The EC50 in [4] was greater than 50 µg/mL; in [5], 0.012 µg/mL.

B4: L6.dP04A03 (antibody, V domains shown)
VH: QVQLVQSGAEVKKPGSSVKVSCKASGGTFSSSAISWVRQAPGQGLEWMGGIIPILDITNYAQKFQGRVTITADKSTSTAFMELSSLRSEDTAVYYCALRNQWDLLVYWGQGTLVTVSS
VL: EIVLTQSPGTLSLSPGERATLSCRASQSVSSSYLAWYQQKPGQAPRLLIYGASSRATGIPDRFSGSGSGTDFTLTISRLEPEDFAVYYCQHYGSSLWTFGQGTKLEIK
B4: the “PSV neutralization IC50” value in experiment [7] was found to be 0.162 µg/mL. Also, in experiment [8], the “Maximum Plateau of Neutralization” value amounted to 100% and the “PSV neutralization IC50” value is 0.039 µg/mL. In addition, the “neutralization IC50” value in experiment [1] stood at 168 ng/mL. The same molecule had a Kd in [15] of 257 nM. Besides, the EC50 in [4] amounted to 0.915 µg/mL.

B5: L6.P4A3.10 (antibody, V domains shown)
VH: QVQLVQSGAEVKKPGSSVKVSCKAPGGTFSSSAISWVRQAPGQGLEWMGGIIPILDITHYAQKFQGRVTITADKSTSTAFMELSSLRSEDTAVYYCALRNQWDLLVYWGQGTLVTVSS
VL: EIVLTQSPGTLSLSPGERATLSCRASQSVSSSYLAWYQQKPGQAPRLLIYGAESRATGIPDRFSGSGSGTDFTLTISRLEPEDFAVYYCQHYGSSVWTFGQGTKLEIK
As to B5, the binding result in experiment [16] is “no binding”.

B6: L6.P4A3.1 (antibody, V domains shown)
VH: QVQLVQSGAEVKKPGSSVKVSCKASGGIFSSSAISWVRQAPGQGLEWMGGIIPILDISNYAQKFQGRVTITADKSTSTAFMELSSLRSEDTAVYYCALTNQWDLLVYWGQGTLVTVSS
VL: EIVLTQSPGTLSLSPGERATLSCRASQRVSSSYLAWYQQKPGQAPRLLIYGAESRATGIPDRFSGSGSGTDFTLTISRLEPEDFAVYYCQHYGSSLWTFGQGTKLEIK
Turning to B6, in experiment [2], the “PSV in HeLa-ACE2 cells IC50” value was determined as 0.049 µg/mL. Also, in experiment [3], the “PSV in HeLa-ACE2 cells IC50” value was determined as 5 ng/mL, the “live virus IC50 (HeLa-ACE2)” value was 8 ng/mL and the “live virus IC50 (Vero)” value was found to be 1 ng/mL.
